Source: patent publication US20080044360A1 (COLLAGEN MEDICAL, published 2008)
Bridge positions count the residues as written; N and C are the ends. Square brackets hold non-standard residues; d marks the D form. Ends that are not written are not given here.

Molecular target: T1, human collagen type I, acid soluble, extracted from placenta (Sigma C7774) (human, UniProt P02452 162-1218; P08123 80-1119)
T1 construct: tissue extract, gelled and dried in wells; also called dried human collagen; h-Collagen
Assay: dried collagen assay
Protocol: An additional 90 μL is reserved in a HPLC glass vial as a measure of the total concentration.

T1 sequence (P02452 162-1218 limits assumed, chain 1 of 2): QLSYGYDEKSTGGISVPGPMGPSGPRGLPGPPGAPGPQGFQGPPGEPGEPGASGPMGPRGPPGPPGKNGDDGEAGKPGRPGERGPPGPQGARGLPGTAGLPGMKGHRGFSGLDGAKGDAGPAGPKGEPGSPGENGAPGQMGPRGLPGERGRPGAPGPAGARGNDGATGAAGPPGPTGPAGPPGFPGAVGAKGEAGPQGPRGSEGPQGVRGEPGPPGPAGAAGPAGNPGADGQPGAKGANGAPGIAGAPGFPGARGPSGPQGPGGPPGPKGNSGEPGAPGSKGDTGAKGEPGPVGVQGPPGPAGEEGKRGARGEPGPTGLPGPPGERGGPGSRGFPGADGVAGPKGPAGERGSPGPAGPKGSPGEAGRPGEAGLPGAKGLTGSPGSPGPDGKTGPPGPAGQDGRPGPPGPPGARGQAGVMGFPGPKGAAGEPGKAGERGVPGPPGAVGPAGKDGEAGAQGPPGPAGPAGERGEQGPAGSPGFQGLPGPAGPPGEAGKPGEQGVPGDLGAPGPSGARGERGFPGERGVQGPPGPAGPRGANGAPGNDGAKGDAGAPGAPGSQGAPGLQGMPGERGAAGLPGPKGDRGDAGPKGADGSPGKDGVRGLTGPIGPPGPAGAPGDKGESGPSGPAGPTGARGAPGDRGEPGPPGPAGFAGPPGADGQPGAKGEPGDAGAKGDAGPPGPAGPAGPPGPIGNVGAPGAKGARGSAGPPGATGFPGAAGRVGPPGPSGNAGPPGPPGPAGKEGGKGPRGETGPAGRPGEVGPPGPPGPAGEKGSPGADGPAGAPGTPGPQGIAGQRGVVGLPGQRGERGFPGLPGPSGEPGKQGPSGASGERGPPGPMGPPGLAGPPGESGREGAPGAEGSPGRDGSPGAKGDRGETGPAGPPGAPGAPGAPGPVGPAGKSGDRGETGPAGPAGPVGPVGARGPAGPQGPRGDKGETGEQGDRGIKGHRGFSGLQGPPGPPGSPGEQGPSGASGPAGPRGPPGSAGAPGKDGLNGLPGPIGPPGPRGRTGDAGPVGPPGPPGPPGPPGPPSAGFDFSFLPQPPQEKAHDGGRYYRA
T1 sequence (P08123 80-1119 limits assumed, chain 2 of 2): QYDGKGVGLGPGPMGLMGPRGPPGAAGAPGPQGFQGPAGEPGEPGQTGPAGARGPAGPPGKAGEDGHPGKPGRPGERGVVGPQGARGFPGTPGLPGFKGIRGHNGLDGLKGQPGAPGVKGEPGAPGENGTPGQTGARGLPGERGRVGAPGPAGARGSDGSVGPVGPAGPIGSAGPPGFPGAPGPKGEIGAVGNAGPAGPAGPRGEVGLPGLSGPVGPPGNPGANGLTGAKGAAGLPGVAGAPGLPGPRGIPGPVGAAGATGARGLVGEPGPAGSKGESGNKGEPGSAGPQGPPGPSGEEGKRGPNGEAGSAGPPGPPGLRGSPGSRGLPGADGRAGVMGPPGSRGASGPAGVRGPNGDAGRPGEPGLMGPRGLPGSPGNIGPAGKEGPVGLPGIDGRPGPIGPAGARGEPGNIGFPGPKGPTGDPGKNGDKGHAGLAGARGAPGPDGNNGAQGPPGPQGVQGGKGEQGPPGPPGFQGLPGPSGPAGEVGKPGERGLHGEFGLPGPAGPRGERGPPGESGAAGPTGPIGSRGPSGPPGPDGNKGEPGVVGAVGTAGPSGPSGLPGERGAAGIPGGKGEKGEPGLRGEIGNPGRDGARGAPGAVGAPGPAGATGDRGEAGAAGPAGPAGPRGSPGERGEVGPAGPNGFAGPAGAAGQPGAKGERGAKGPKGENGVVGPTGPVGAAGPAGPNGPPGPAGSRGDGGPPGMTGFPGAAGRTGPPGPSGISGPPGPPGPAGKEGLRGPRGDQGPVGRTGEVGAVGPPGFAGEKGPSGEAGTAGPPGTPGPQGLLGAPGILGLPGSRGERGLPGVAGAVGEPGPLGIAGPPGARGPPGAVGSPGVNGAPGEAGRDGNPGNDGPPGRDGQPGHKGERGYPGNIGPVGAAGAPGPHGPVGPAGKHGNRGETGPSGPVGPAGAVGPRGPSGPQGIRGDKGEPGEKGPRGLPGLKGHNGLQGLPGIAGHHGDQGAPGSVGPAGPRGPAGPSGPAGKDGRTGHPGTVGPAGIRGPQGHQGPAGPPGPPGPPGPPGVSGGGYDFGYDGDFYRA

Binder	% bound [%]
DWTCRGDEYTWHCNYE (disulfide 4-13 (inferred), cyclic, disulfide) [SEQ ID NO 14]	83
DWTCYGDEYTWHCNYE (disulfide 4-13 (inferred); not fully specified (C-terminus), cyclic, disulfide) [SEQ ID NO 15]	83
DWTCSGDEYYWHCNYE (disulfide 4-13 (inferred); not fully specified (C-terminus), cyclic, disulfide) [SEQ ID NO 16]	83
DWTCSGDEYTWYCNYE (disulfide 4-13 (inferred), cyclic, disulfide) [SEQ ID NO 18]	78
DWTCSGDEYRWHCNYE (disulfide 4-13 (inferred), cyclic, disulfide) [SEQ ID NO 19]	70
GQWTCSADEYTWHCNYE (disulfide 5-14 (inferred), cyclic, disulfide) [SEQ ID NO 142]	9
QWTCSG[dD]EYTWHCNYE (disulfide 4-13 (inferred); not fully specified (N-terminus); printed as QWTCSGdEYTWHCNYE, cyclic, disulfide) [SEQ ID NO 169]	11
QWTCSGDE[dY]TWHCNYE (disulfide 4-13 (inferred); not fully specified (N-terminus); printed as QWTCSGDEyTWHCNYE, cyclic, disulfide) [SEQ ID NO 171]	13
LTVCHPPYYGRCNFV (disulfide 4-12 (inferred), cyclic, disulfide) [SEQ ID NO 10]	9
PLVCHPPYSGSCSLH (disulfide 4-12 (inferred), cyclic, disulfide) [SEQ ID NO 11]	9
PMICHAPYVGKCNFL (disulfide 4-12 (inferred), cyclic, disulfide) [SEQ ID NO 12]	7
PWYCSGDHLDWKCIYQ (disulfide 4-13 (inferred), cyclic, disulfide) [SEQ ID NO 20]	64
DWTCVGDHKTWKCNFH (disulfide 4-13 (inferred), cyclic, disulfide) [SEQ ID NO 21]	57
DWECHGNEFEWNCLMR (disulfide 4-13 (inferred), cyclic, disulfide) [SEQ ID NO 22]	55
AWDCSGNIPTWYCRRL (disulfide 4-13 (inferred), cyclic, disulfide) [SEQ ID NO 23]	44
EWLCVGDSLKWYCKHS (disulfide 4-13 (inferred), cyclic, disulfide) [SEQ ID NO 24]	43
IWLCTGGAATWNCKFD (disulfide 4-13 (inferred), cyclic, disulfide) [SEQ ID NO 25]	39
WRCDGDAHDWHCDWF (disulfide 3-12 (inferred), cyclic, disulfide) [SEQ ID NO 26]	25
SWHCFGDNENWMCNLR (disulfide 4-13 (inferred), cyclic, disulfide) [SEQ ID NO 27]	24
SWICTGDNIDWNCRFA (disulfide 4-13 (inferred), cyclic, disulfide) [SEQ ID NO 28]	20

Binder	% bound [%]
DWICHGDFDTWKCDLQ (disulfide 4-13 (inferred), cyclic, disulfide) [SEQ ID NO 29]	16
GWDCQGTDNIWECVRK (disulfide 4-13 (inferred), cyclic, disulfide) [SEQ ID NO 30]	16
GWVCGGDHTTWECHLQ (disulfide 4-13 (inferred), cyclic, disulfide) [SEQ ID NO 31]	15
NWVCSGDHADWSCALI (disulfide 4-13 (inferred), cyclic, disulfide) [SEQ ID NO 32]	12
AWTCVGGEKTWGCVWN (disulfide 4-13 (inferred), cyclic, disulfide) [SEQ ID NO 33]	12
MWDCTGNSAEWRCEMQ (disulfide 4-13 (inferred), cyclic, disulfide) [SEQ ID NO 34]	11
YWVCGGDHQSWHCSHP (disulfide 4-13 (inferred), cyclic, disulfide) [SEQ ID NO 35]	8
EWRCRGDSSSWLCDYT (disulfide 4-13 (inferred), cyclic, disulfide) [SEQ ID NO 40]	3
VWACRGGTTNWHCDL (disulfide 4-13 (inferred), cyclic, disulfide) [SEQ ID NO 41]	1
TWRCDQFKGKWVCRGG (disulfide 4-13 (inferred), cyclic, disulfide) [SEQ ID NO 42]	40
PWQCYSDKTSWVCNLY (disulfide 4-13 (inferred), cyclic, disulfide) [SEQ ID NO 43]	30
GWNCYEYDSQWICDHL (disulfide 4-13 (inferred), cyclic, disulfide) [SEQ ID NO 44]	28
EWQCTQYANQWNCKYN (disulfide 4-13 (inferred), cyclic, disulfide) [SEQ ID NO 45]	25
GWVCLQKGPKWVCDWD (disulfide 4-13 (inferred), cyclic, disulfide) [SEQ ID NO 46]	23
PWTCRMTENTWVCDLN (disulfide 4-13 (inferred), cyclic, disulfide) [SEQ ID NO 47]	22
AWSCWIVEGRWNCSDI (disulfide 4-13 (inferred), cyclic, disulfide) [SEQ ID NO 48]	22
AWFCSQKNRLWSCGET (disulfide 4-13 (inferred), cyclic, disulfide) [SEQ ID NO 49]	19
KWFCELMQDQWQCGSK (disulfide 4-13 (inferred), cyclic, disulfide) [SEQ ID NO 50]	18
KWFCELMHDQWQCGSK (disulfide 4-13 (inferred), cyclic, disulfide) [SEQ ID NO 51]	18
RWSCWLDENGWKCDGT (disulfide 4-13 (inferred), cyclic, disulfide) [SEQ ID NO 52]	15
